From patent publication US20250034258A1 (Merck Sharp & Dohme, published 2025)

B1: α-PD-L1 VHH (VHH)
VHH: EVQLVESGGGLVQAGGSLSVSCAPSGRTFSNYAMGWFRQAPGKEREFVARISGGGGYTAYADSVKGRFTIARDNAKNTVYLQMNSLKPEDTAVYYCAAGSIDSRQPYDSTRRYDYWGQGTLVTVSS
notes: also called anti-PD-L1 VHH
B2: α-PD-L1 VHH 2 (VHH)
VHH: EVQLVESGGGLKQAGGSLRLSCTASARASTYIAMAWFRRTPGKAREFVAAITWSGGHTTYADSMKGRFTISRDNAKNTVYLHLNALQPEDAGVYYCAANQRNTVGPSEGAYPYWGQGTLVTVSS
B3: α-PD-L1 VHH 3 (VHH)
VHH: EVQLVESGGGLVQPGGSLRLSCAASGRTLSNHAMHWFRQAPGKEREFVSAITWSDGETYYEDSVKGRFTISRDNAKDTAYLEMQSLKPEDTAVYYCAAKMGGPTSIPGLVEYWGQGTLVTVSS
B4: α-PD-1 VHH (VHH)
VHH: EVQLVESGGGLVQAGDSLRLSCVASGRTFSSYHMGWFRQAPGKEREFVAAIPRSGSNIGYSAFVKDRGTISRDNAKNTVYLQINNLAPDDTAVYYCAAKSAAGYYSGVVFTADYDYTYWGQGTLVTVSS
notes: also called anti-PD-1 VHH

Legend:
human PD-L1 = target: T1, human PD-L1 (human, UniProt Q9NZQ7 19-290); assay: flow cytometry on CHO-K1.hPD-L1 cells, anti-FLAG detection
T1 construct: whole, on cells; also called hPD-L1; CHO-K1.hPD-L1
T1 sequence (Q9NZQ7 19-290): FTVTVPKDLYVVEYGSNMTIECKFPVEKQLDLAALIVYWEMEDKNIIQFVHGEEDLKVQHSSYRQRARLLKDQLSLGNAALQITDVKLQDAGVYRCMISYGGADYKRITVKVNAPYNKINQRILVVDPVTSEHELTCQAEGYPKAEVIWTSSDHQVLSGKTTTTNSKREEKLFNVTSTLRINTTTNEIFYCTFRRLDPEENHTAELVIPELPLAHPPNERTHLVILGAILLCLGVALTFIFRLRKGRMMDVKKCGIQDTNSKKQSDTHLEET
Procedure: CHO-K1.hPD-L1 cells were resuspended in Stain Buffer (PBS, 2% FBS, 0.05% sodium azide) and 1E5 cells/well were transferred to a 96-well V-bottom plate and centrifuged. Cells were suspended in 100 μL/well serial diluted VHH or anti-PD-L1 antibody (atezolizumab) in Stain Buffer and incubated for 30 minutes at 4° C. VHH binding was detected by resuspending the samples subsequently in 100 μL/well mouse a-FLAG antibody (Sigma: F1804) and detected with PE-labeled goat anti-mouse IgG (Jackson ImmunoResearch: 115-116-071) as detection antibody and 5 nM TOPRO3 (Molecular Probes: T3605) as dead dye. Between each step, the cells were collected via centrifugation for 5 minutes at 200×g and washed three times with 100 μL/well Stain Buffer.

human PD-1 = target: T2, human PD-1 (human, UniProt Q15116 25-288); assay: flow cytometry on CHO-K1.hPD-1 cells, anti-FLAG detection
T2 construct: whole, on cells; also called hPD-1; CHO-K1.hPD-1
T2 sequence (Q15116 25-288): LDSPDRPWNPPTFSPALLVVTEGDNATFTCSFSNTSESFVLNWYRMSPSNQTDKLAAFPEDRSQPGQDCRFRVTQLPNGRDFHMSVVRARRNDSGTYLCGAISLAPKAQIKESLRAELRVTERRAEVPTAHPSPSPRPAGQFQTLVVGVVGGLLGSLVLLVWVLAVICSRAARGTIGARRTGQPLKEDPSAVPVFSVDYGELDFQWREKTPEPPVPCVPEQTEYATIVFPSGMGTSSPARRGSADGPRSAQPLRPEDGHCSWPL

Binder	binding result (human PD-L1)	binding result (human PD-1)
B1	binds	–
B2	binds	–
B3	binds	–
B4	–	binds
